# From patent US20240043504A1
# B1: mAb11004 (antibody, V domains shown)
# VH: QVQLVESGGGVVQPGRSLRLSCVASGFTFSIYGMDWVRQAPGKGLEWVAVISYDGSNKYYADSVKGRFTISRDNSKNTLYLQMNSLRPEDTAVYYCAKDREAAADAFDIWGQGTMVTVSS
# VL: DIQMTQSPSSVSASVGDRVTITCRASQGISSWLAWYQQKPGKAPKLLIYAASSLHSGVPSRFSGSGSGTDFTLTISSLQPEDFATYYCQQANSFRLTFGGGTKVEIK
# B2: mAb10998 (antibody, V domains shown)
# VH: EVQLVESGGGLVHPGGSLRLSCAASGLTVSSNYMSWVRQAPGKGLEWVSVIYSGGSTYYADSVKGRFTISRHNSKNTLFLQMNSLRAEDTAVYYCARDRPITGTTLDVWGQGTTVTVSS
# VL: DIQMTQSPSSLFASVGDRVTITCRASQSISSYLNWYQQKPGKAPKLLIYAASSLQSGVPSRFSGSGSGTDFTLTISSLQPEDFAFYYCQQTYSTPPITFGQGTRLEIK
# B3: mAb11006 (antibody, V domains shown)
# VH: EVQLVESGGGLVQPGGSLRLSCAASGFIVSRNYMSWVRQAPGKGLEWVSVIYSGGSTFYADSVKGRFTISRHNSKNTLYLQMNSLKAEDTAVYYCARELRGYFDYWGQGTLVTVSS
# VL: DIQLTQSPSFLSASVGDRVTITCWASQGISSYLAWYQQKPGKAPKLLIYAASTLQSGVPSRFSGSGSGTEFTLTISSLQPEDFATYYCQLLNSYPYTFGQGTKLEIK
# B4: mAb11008 (antibody, V domains shown)
# VH: EVQLVESGGGLVQPGGSLRLSCAASGFTVSSNYMTWVRQAPGKGLEWVSVIYSGGSTFYADSVKGRFTISRHNSENTLYLQMNSLRAEDTAVYYCARDLAAAGTDYWGQGALVTVSS
# VL: DIQLTQSPSFLSASVGDRVTITCWASQGISSYLAWYQQKPGKAPKLLIYAASTLQSGVPSRFSGSGSGTEFTLTISSLQPDDFATYYCQHLNSYLYTFGQGTKLEIK
# Legend:
# [1] = molecular target: T1, SARS-CoV-2 Spike Protein (RBD)(R319-F541).mmH (SARS-CoV-2); test: Luminex bead binding, supernatant; conditions: remark: other sources report otherwise
# [2] = molecular target: T1, SARS-CoV-2 Spike Protein …; test: Luminex bead binding, supernatant; conditions: remark: other sources report otherwise; remark: listed apart in the source
Binder,Binding signal (MFI) [1],Binding signal (MFI) [2]
B1,3350 MFI,11300 MFI
B2,1850 MFI,3840 MFI
B3,5130 MFI,4740 MFI
B4,4050 MFI,3180 MFI
